Assay results reported in US20260116946A1, “NOVEL CD200 FUSION PROTEINS” (DUCENTIS BIOTHERAPEUTICS LIMITED, priority 2022, published 2026).
Where two headings read alike, the source gives them in different places.

How the values were obtained:
[1] = target: Recombinant Cyno CD200R, His-tagged (Creative Biomart CD200R1-3483C) (cynomolgus) (UniProt G7NZT0); assay: SPR (BIAcore T200), CD200-Fc captured on anti-human Fc, cyno CD200R in solution, 25 C, mean of two runs
[2] = target: Recombinant Cyno CD200R, His-tagged (Creative Biomart CD200R1-3483C) (cynomolgus) (UniProt G7NZT0); assay: SPR (BIAcore), DS-155 captured via anti-human Fc, CynoCD200R1 as analyte, DRC = 1000 nM to 62.5 nM (5 curves), 25 °C, 1:1 Binding fit; Run 1
[3] = target: Recombinant Human CD200R, His-tagged (Creative Biomart CD200R1-320H) (human) (UniProt Q8TD46); assay: SPR (BIAcore T200), CD200-Fc captured on anti-human Fc, human CD200R in solution, 25 C
Recombinant Human CD200R, His-tagged (Creative Biomart CD200R1-320H) (human), sequence (Q8TD46 27-266 limits assumed): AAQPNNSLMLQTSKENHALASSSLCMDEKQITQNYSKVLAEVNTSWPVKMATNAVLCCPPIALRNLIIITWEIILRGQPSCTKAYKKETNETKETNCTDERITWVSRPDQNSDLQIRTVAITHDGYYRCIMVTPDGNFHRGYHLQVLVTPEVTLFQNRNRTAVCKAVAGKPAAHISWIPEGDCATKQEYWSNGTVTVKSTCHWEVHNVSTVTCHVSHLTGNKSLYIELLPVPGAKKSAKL

[4] = target: Recombinant Human CD200R, His-tagged (Creative Biomart CD200R1-320H) (human) (UniProt Q8TD46); assay: SPR (BIAcore), DS-155 captured via anti-human Fc, HuCD200R1 as analyte, DRC = 500 nM to 31.25 nM (5 curves), 25 °C, 1:1 Binding fit; Run 2
[5] = target: Recombinant Cyno CD200R, His-tagged (Creative Biomart CD200R1-3483C) (cynomolgus) (UniProt G7NZT0); assay: SPR (BIAcore), DS-155 captured via anti-human Fc, CynoCD200R1 as analyte, DRC = 1000 nM to 62.5 nM (5 curves), 25 °C, 1:1 Binding fit; Run 2
[6] = target: Recombinant Human CD200R, His-tagged (Creative Biomart CD200R1-320H) (human) (UniProt Q8TD46); assay: SPR (BIAcore T200), CD200-Fc captured on anti-human Fc, human CD200R in solution, 25 C, mean of two runs
[7] = target: Recombinant Human CD200R, His-tagged (Creative Biomart CD200R1-320H) (human) (UniProt Q8TD46); assay: SPR (BIAcore), DS-155 captured via anti-human Fc, HuCD200R1 as analyte, DRC = 500 nM to 31.25 nM (5 curves), 25 °C, 1:1 Binding fit; Run 1
[8] = target: Recombinant Cyno CD200R, His-tagged (Creative Biomart CD200R1-3483C) (cynomolgus) (UniProt G7NZT0); assay: SPR (BIAcore T200), CD200-Fc captured on anti-human Fc, cyno CD200R in solution, 25 C
[9] = target: Recombinant Human CD200R, His-tagged (Creative Biomart CD200R1-320H) (human) (UniProt Q8TD46); assay: not described (affinity label of the construct for CD200R)
[10] = target: T1, muCD200R-Fc (Creative Biomart CD200R1-458M) (mouse, UniProt Q9ES57 26-238); assay: SPR, muCD200R-Fc captured on anti-human IgG Fc, CD200 monomers in solution
T1 construct: Bought reagent; also called captured CD200R; not shown: Fc part of the bought fusion; captured on anti-human IgG Fc
T1 sequence (looked up): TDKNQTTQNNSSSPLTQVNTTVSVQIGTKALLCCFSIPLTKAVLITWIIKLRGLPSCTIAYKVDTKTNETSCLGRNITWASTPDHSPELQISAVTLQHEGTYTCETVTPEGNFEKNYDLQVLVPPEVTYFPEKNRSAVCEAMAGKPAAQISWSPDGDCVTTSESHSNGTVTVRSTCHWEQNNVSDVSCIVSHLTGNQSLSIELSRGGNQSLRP
Experimental: For human CD200 constructs: anti-human Fc (GE Healthcare) was covalently immobilized on a BIAcore CM5 sensor chip (Cytiva, BR100530) by amine coupling using a Cytiva kit (BR100839) following the manufacturer's instructions, targeting immobilization of 8,000-11,000 RU. CD200-Fc proteins were diluted to 0.5 μg/mL to 4 μg/mL in running Buffer (1×HBS-EP+pH7.4 (Cytiva BR100669), HEPES Buffered Saline pH 7.4 containing 3 mM EDTA and 0.05% v/v Surfactant P20) and flowed for 25 to 100 seconds at […] over the immobilized Anti-Human IgG Fc, with a stabilization time of 60 seconds. Between 35 and 250 RUs of CD200-Fc were captured, with higher RUs used for cynomolgus CD200R binding experiments. […] Analysis temperature was 25° C. This was followed by regeneration of the surface with 30-90 second pulse of 3M MgCl₂ flowed at 30 μL/min flow rate followed by stabilization of the surface with 60 second flow of running buffer.
(§1) For mouse CD200 constructs, muCD200R-Fc (Creative Biomart CD200R1-458M) diluted to 1 μg/mL in running buffer was flowed over the immobilized Anti-Human IgG Fc, with CD200 monomers serially diluted and flowed over captured CD200R. Other details were as above. Data analysis: experimental sensorgrams were analyzed in BIAevaluation software (GE Healthcare). The curves obtained were fitted to 1:1 Langmuir binding model by setting Rmax and RI as local parameters. Rate equations using standard parameters (e.g. ligand concentration, time) were used for iterative curve fitting. Closeness of fit was determined by algorithms provided by the manufacturer in the BIAevaluation software, and data accepted if the Chi² value was less than 10% of Rₘₐₓ, and the U value was less than or equal to 15.

muCD200R-Fc = target: T2, muCD200R-Fc (Mus musculus, UniProt Q9ES57); assay: BIAcore SPR binding of murine CD200 variants to muCD200R-Fc
T2 construct: purchased Creative Biomart CD200R1-458M
T2 sequence (Q9ES57 26-238 limits assumed): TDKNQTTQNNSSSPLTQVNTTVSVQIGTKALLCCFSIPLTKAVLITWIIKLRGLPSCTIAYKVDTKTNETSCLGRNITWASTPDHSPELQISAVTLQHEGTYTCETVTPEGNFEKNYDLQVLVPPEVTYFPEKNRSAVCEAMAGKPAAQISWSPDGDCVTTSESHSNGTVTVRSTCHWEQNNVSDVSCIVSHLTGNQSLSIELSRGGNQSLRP
Experimental: as §1, with “Chi^2” for “Chi²”, “Rmax,” for “Rₘₐₓ,”
Murine CD200 constructs used Uniprot sequence O54901, containing the signal peptide and extracellular domains. Mutation numbers refer to the full Uniprot sequences including signal peptide.
Proteins were generated by transient transfection of pcDNA 3.1-based expression plasmids into CHO-3E7 cells using Polyethyleneimine (PEI). 24 hours post transfection, cultures were shifted to 32° C., fed with 10% feed C, glutamine, glucose and […] Sodium butyrate; supernatants were harvested and filtered at day 7. Purification was performed at 4° C. using MabSelect SuRe 5 ml affinity columns (Cytiva), pre-equilibrated with 50 mM Sodium Phosphate, 150 mM NaCl PH 7.4, at a flowrate of 3 mL/min on a AKTA Pure platform. The column was washed with equilibration buffer and bound protein eluted using 20 mM sodium acetate, 150 mM NaCl pH 3.5. Elutes were neutralized with 10% v/v 1 M Tris pH 8.0 and analysed by SDS-PAGE. Pooled fractions were concentrated to 5 mL and subjected to gel-filtration chromatography (Hiload 16/600 Superdex-200 pg column) on a AKTA Pure platform. The protein was processed in 50 mM Sodium Phosphate, 150 mM NaCl pH 7.4 buffer system at 1.2 mL/min. Fractions containing protein were pooled and concentrated using an Amicon Ultra Centricon (10 kDa molecular weight cut-off) to 1.33 mg/mL (measured at UV 280 nm). The purified material was subjected to SEC-HPLC, LC-MS and EndoSafe LAL cartridge test to assess protein purity, molecular mass and endotoxin content, respectively. Mouse CD200-his proteins were purified with Ni-NTA agarose resin using standard methodology. All proteins were stored at −80° C.

male DBA/1J mice = assay: Mouse collagen-induced arthritis (CIA) model, preventative dosing; assay type: in vivo; conditions: 3 mg/kg once every 3 days, day 22 to 36; scores day 25-36
Experimental: Wild type (DS-198) and higher affinity (DS-227) murine CD200-Fc proteins were tested using a CIA model by initiating dosing just prior to symptom onset. Arthritis was induced in male DBA/1J mice by intradermal injection of bovine type II collagen in CFA (complete Freund's adjuvant) on day 1, followed by a booster injection in incomplete Freund's adjuvant on day 21. […] Clinical scores of paw arthritis (blinded assessment) were measured from day 25-36 on alternate days. The data in FIG. 9 are shown as Mean±SEM. **p<0.01; ***p<0.001 vs Disease+Dexa, Disease+DS-198, & Disease+DS-227. Two-way RM ANOVA followed by Tukey's multiple comparisons test.

[11] = murine CD200, stated in text, read-out: binding affinity

## DS-155 (wild-type human CD200-Fc, IgG4 S228P) (from UniProt P41217 31-232; P01861 99-327) (Fc fusion)
[1]
  Kd: 971 nM
  koff: 0.0586 s⁻¹
  kon: 60600 M⁻¹ s⁻¹
[2]
  Kd: 888 nM
  koff: 0.0564 s⁻¹
  kon: 63500 M⁻¹ s⁻¹
[3]
  t½: 21 s
[4]
  Kd: 183 nM
  koff: 0.0329 s⁻¹
  kon: 180000 M⁻¹ s⁻¹
[5]
  Kd: 1050 nM
  koff: 0.0608 s⁻¹
  kon: 57600 M⁻¹ s⁻¹
[6]
  Kd: 179 nM
  koff: 0.0326 s⁻¹
  kon: 183000 M⁻¹ s⁻¹
[7]
  Kd: 174 nM
  koff: 0.0324 s⁻¹
  kon: 186000 M⁻¹ s⁻¹
[8]
  t½: 12 s

## DS-192 (human CD200 K130Y - IgG4 S228P Fc) (from UniProt P41217 31-232; P01861 99-327) (Fc fusion)
[9]
  Kd: 13 nM

B1: murine CD200 wild type (Table 7 'wt') (ligand, mouse, UniProt O54901 31-232, looked up)
chain: QVEVVTQDERKALHTTASLRCSLKTSQEPLIVTWQKKKAVSPENMVTYSKTHGVVIQPAYKDRINVTELGLWNSSITFWNTTLEDEGCYMCLFNTFGSQKVSGTACLTLYVQPIVHLHYNYFEDHLNITCSATARPAPAISWKGTGTGIENSTESHFHSNGTTSVTSILRVKDPKTQVGKEVICQVLYLGNVIDYKQSLDKG
notes: extracellular domain; The Fc fusion with the same CD200 part is DS-198 (muIgG2a); also called mouse CD200-his; CD200 monomer
[10]
  T1/2: 17.3 s

B2: H82Y, T125I: murine CD200 combination variant H82Y, T125I of Table 7 (protein)
chain: QVEVVTQDERKALHTTASLRCSLKTSQEPLIVTWQKKKAVSPENMVTYSKTYGVVIQPAYKDRINVTELGLWNSSITFWNTTLEDEGCYMCLFNIFGSQKVSGTACLTLYVQPIVHLHYNYFEDHLNITCSATARPAPAISWKGTGTGIENSTESHFHSNGTTSVTSILRVKDPKTQVGKEVICQVLYLGNVIDYKQSLDKG
muCD200R-Fc; [11]
  Kd: 43 nM
muCD200R-Fc; murine CD200 variants, table head prints no unit, nM, read-out: KD
  Kd: 43.3 ± 4.9 nM
muCD200R-Fc; versus wild type murine CD200
  fold higher binding affinity than wild type: approximately 14 fold

B3: DS-227: high affinity murine CD200-Fc, CD200 H82Y, T125I, muIgG2a Fc (protein)
chain: QVEVVTQDERKALHTTASLRCSLKTSQEPLIVTWQKKKAVSPENMVTYSKTYGVVIQPAYKDRINVTELGLWNSSITFWNTTLEDEGCYMCLFNIFGSQKVSGTACLTLYVQPIVHLHYNYFEDHLNITCSATARPAPAISWKGTGTGIENSTESHFHSNGTTSVTSILRVKDPKTQVGKEVICQVLYLGNVIDYKQSLDKG
modifications: left off: small tags and cut ends
Male DBA/1J mice
  clinical score of paw arthritis: significantly more potent in reducing clinical score than wild type (DS-198)
muCD200R-Fc; [11]
  Kd: 43 nM

B4: murine CD200 H82Y, T125I (Table 7 combination variant) (ligand, mouse, UniProt O54901 31-232, looked up)
chain: QVEVVTQDERKALHTTASLRCSLKTSQEPLIVTWQKKKAVSPENMVTYSKTYGVVIQPAYKDRINVTELGLWNSSITFWNTTLEDEGCYMCLFNIFGSQKVSGTACLTLYVQPIVHLHYNYFEDHLNITCSATARPAPAISWKGTGTGIENSTESHFHSNGTTSVTSILRVKDPKTQVGKEVICQVLYLGNVIDYKQSLDKG
notes: extracellular domain; The Fc fusion with the same mutations is DS-227 (muIgG2a, called '43 nM muCD200-Fc'); also called combination variant H82Y, T1251; mouse CD200-his
[10]
  T1/2: 118 s
  fold higher binding affinity than wild type: ~14 fold
